Data taken from US7288381 (PHADIA, dated 2007).
Changes are numbered by the printed parent chain.

Biological target: T1, β-gal alone (λgt 11 phage control proteins) (UniProt P00722 2-1024 = β-galactosidase)
T1 construct: Negative control dot; also called β-gal alone (4); λgt 11 phage control proteins (4)
Assay: dot blot of β-gal fusion proteins, anti-human Fab detection
Procedure: Expression of Recombinant Fragments of the Phl p 2 Allergen for Mapping of the Binding Sites of the Human IgE Fabs Lambda gt11 phage clones expressing β-galactosidase fused complete Phl p 2 and Phl p 2 fragments were generated as described (8). E. coli Y1090 were plated as confluent lawn onto LB plates containing 100 mg/l ampicillin (19). Two µl aliquots of phage lysates containing >10^6 plaque-forming units of each phage clone were dotted onto the E. coli lawn in defined order and plates were incubated at 43° C. until plaques became visible. The synthesis of recombinant protein was induced by overlay with 10 mM IPTG-soaked nitrocellulose filters (Schleicher& Schuell, Dassel, Germany) for additional 4 hours The clones which reacted with the IgE Fabs were identified by immunoscreening. For this purpose filters were washed twice for 5 min and once for 30 min with TBST containing 0.5% w/v BSA at roomtemperature and then probed overnight with E. coli extracts containing anti-Phl p 2 Fab and, for control purposes, with extracts from E. coli transformed with the empty pComb 3H plasmid at 4° C. After washing, the Fabs were detected with an alkaline phospatase-coupled goat anti-human Fab antiserum diluted 1:5000 in TBST/0.5% w/v BSA.
A Recombinant Fragment Comprising the N-terminal 64 Amino Acids of Phl p 2 Contains the Binding Site for the IgE Fabs In order to determine the binding site for the rPhl p 2-specific IgE Fabs, nitrocellulose-dotted complete β-gal-fused rPhl p 2 allergen (96 aa), a N-terminal rPhl p 2 fragment comprising the first 64 aa portion (1-64) and a 69 aa long C-terminal rPhl p 2 fragment (28-96 aa) were exposed to the Fabs (FIG. 2A). […] The N-terminal and C-terminal fragment have been indicated in the model (FIG. 2B).

T1 sequence (P00722 2-1024 limits assumed): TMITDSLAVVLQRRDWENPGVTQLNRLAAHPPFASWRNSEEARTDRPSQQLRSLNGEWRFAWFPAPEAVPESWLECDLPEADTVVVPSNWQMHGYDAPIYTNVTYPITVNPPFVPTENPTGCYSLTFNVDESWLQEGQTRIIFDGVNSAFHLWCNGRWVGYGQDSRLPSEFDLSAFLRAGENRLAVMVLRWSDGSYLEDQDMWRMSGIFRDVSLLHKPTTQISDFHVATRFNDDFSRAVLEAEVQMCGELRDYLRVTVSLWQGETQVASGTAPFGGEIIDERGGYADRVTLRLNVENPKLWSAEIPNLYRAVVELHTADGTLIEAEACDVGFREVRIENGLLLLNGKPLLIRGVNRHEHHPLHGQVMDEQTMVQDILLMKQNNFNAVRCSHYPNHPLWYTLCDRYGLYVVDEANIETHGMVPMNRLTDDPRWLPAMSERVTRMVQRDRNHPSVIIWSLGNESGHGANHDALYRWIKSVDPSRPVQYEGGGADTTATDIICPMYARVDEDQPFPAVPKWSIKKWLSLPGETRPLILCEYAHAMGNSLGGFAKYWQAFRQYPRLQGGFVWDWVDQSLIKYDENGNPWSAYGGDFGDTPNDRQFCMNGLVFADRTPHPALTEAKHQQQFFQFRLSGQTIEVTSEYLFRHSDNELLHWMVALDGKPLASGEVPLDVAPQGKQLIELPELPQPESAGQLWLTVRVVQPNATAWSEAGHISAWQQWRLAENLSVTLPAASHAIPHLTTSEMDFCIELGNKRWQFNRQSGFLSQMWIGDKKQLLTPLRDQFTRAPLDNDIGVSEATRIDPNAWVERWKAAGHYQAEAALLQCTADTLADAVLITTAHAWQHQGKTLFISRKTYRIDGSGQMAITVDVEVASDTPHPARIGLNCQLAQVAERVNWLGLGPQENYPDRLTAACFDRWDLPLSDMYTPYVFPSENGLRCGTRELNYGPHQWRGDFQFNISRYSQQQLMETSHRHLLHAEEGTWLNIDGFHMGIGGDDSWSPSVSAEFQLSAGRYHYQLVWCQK

B1: Phl p 2-specific human IgE Fab, clone 60 (Fab, V domains shown)
VH: LESGPGLVKPSQTLSLTCTVSGGSIRSGGYYWSWVRQPPGKGLEWIGNIYHSGNTYYNPSLKSRITMSVDTSKNHFSLRLTSVTAADTAVYYCARSDGYTLDNWGQGTLVTVSS
VL: ELTQSPSSLSASVGDRVTITCRARQSISTYLNWYQQKPGKAPKLLIWSASNLQSGVPSRFSGSGSGTEFTLTISNLQFEDFASYYCQQSYTTLYTFGSGTKLEIKR
notes: Human IgE Fab (Fd plus kappa light chain) expressed from pComb3H in E. coli and used as bacterial extract; also called rPhl p 2-specific IgE Fab; anti-Phl p 2 Fab
binding result: no binding

B2: Phl p 2-specific human IgE Fab, clone 100 (Fab, V domains shown)
VH: B1 VH with V35I, N48Y, I65V, T81S
VL: ELTQSPSSVSASVGDRVTITCRASQGISSWLAWYQHQPGKAPKLLIYSASSLQSGVPSRFSGSGYGTDFSLTISSLQFEDSATYYCQQANSFPYTFGQGTKVEIKR
notes: as for B1
binding result: no binding

B3: Phl p 2-specific human IgE Fab, clone 94 (Fab, V domains shown)
VH: LESGPGLVKPAQTLSLSCAVSGGSIRSGGYYWSWIRQHPGKGLEWIGYIYHSGNTYYNPSLKSRIAMSVDTSENKFSLRLNSVTAADTAVYYCARLDGYTLDIWGQGTLVTVSS
VL: ELTQSPSSLSASVGDRVTISCRASQRINTYLNWYQHKPGKAPKLLIYAASSLQSGVPSRFSGSGYGTDFTLTISSLQFEDFASYYCQESLSASYTFGQGTKVEIKR
notes: Human IgE Fab (heavy chain fragment Fd plus kappa light chain) expressed from pComb3H in E. coli and used as bacterial extract; they start at the Xho I / Sac I cloning sites; also called clone 94-derived IgE Fab; rPhl p 2-specific IgE Fab
binding result: no binding
